B1: human LIF (source not stated) (ligand)
chain: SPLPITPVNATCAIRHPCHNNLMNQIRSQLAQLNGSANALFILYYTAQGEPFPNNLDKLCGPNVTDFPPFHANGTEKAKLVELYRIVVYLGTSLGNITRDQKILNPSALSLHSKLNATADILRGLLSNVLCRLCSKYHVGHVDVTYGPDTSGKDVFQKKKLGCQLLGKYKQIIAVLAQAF
notes: also called hLIF; endogenous LIF of U-251 cells

One assay has as its target T1, recombinant human gp130 (human, UniProt P40189 23-619, limits assumed).
T1 sequence (looked up): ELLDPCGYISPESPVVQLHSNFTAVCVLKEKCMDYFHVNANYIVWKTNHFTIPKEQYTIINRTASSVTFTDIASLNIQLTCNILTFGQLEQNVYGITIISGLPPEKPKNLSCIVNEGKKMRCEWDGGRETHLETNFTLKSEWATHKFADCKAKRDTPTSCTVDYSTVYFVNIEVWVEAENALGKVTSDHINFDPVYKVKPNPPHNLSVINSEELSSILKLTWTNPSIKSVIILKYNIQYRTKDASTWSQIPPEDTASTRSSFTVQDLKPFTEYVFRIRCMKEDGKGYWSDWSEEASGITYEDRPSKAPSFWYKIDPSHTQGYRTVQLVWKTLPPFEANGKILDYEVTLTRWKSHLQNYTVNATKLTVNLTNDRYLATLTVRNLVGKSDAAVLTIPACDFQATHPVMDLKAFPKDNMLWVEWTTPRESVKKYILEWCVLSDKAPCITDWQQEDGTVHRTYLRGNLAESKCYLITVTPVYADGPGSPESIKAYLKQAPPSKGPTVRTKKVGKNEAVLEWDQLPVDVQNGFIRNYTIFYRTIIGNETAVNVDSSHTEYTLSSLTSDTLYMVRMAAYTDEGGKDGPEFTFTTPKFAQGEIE
In words: ELISA: LIF pre-incubated with B09, added to a plate coated with gp130, detected through the antibody with peroxidase anti-rat IgG. In general terms: In an ELISA, binding on a coated surface is turned into a signal by an enzyme label.

Assay [1] has as its target B1. Nature of the assay: cell-based or functional assay.
The target in the next assay is T2, recombinant human LIFR (human, UniProt P42702 45-833, limits assumed).
T2 construct: also called hLIFR
T2 sequence (looked up): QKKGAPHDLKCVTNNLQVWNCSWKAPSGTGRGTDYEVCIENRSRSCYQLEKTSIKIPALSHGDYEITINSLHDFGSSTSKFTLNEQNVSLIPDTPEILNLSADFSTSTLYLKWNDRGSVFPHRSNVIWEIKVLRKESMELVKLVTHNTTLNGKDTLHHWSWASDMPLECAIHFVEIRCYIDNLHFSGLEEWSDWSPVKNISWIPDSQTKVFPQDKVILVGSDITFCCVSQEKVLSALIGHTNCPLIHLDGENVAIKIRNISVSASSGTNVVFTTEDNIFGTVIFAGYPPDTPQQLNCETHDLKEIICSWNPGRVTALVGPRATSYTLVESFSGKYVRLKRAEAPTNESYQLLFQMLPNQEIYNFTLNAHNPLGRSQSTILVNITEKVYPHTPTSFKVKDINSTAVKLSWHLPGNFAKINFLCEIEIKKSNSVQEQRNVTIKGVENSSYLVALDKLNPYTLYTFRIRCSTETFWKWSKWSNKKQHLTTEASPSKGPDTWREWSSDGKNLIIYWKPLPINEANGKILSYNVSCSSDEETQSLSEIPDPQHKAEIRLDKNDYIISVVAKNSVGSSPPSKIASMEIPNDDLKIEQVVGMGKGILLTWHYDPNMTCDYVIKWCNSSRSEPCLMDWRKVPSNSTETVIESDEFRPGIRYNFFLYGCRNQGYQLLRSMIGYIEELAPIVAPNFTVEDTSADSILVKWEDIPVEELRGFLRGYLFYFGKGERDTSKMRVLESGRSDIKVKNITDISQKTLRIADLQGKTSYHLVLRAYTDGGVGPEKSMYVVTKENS
In words: BLI (Octet RED96) control experiment, h5D8 on AHC sensors.

The target of another assay is T3, human IL-6 (E. coli) (human, UniProt P05231 30-212, limits assumed).
T3 construct: also called huIL-6 (E. coli)
T3 sequence (P05231 30-212 limits assumed): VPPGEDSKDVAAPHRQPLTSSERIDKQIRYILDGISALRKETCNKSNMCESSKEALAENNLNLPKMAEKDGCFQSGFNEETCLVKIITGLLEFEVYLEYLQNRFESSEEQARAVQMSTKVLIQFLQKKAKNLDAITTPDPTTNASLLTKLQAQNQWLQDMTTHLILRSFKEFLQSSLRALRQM
Nature of the assay: BLI (Octet), h5D8 amine-coupled to AR2G sensors, cytokine analyte; legend: ND = no binding.

Method for human IL-6 (E. coli): 9.0.0.26 as follows: Amine Reactive 2ndGeneration Biosensors (AR2G) were hydrated for a minimum of 15 minutes in water. […] Kinetics experiments were then performed with the following Dip and Read steps at 30° C., 1000 rpm: vi) 60 seconds Baseline in 1× kinetics buffer; vii) 180 seconds Association of appropriate serial dilutions of a cytokine in 1× kinetics buffer; viii) 300 seconds Dissociation in 1× kinetics buffer; ix) Three Regeneration/Neutralization cycles alternating between 10 mM glycine pH 2.0 and 1× kinetics buffer respectively (5 seconds in each for 3 cycles). Following regeneration, the biosensors were reused for subsequent binding analyses.

Consider B1, for which the binding result with recombinant human gp130 is on record as “binds”.

B2: h5D8 (humanized 5D8, H2L2) (antibody, V domains shown)
VH: QVQLQESGGGLVKPGGSLRLSCAASGFTFSHAWMHWVRQAPGKGLEWVGQIKAKSDDYATYYAESVKGRFTISRDDSKNTLYLQMNSLKTEDTAVYYCTCWEWDLDFWGQGTMVTVSS
VL: DIVMTQTPLSSPVTLGQPASISCRSSQSLLDSDGHTYLNWLQQRPGQPPRLLIYSVSNLESGVPDRFSGSGAGTDFTLKISRVEAEDVGVYYCMQATHAPPYTFGQGTKLEIK
notes: Humanized by CDR grafting from rat 5D8; also called G (H2L2); H5D8-1 IgG
Take B2: the “IC50 for biological inhibition (pSTAT3, U-251 cells, serum starved, endogenous LIF)” value in assay [1] came to 490 picomolar. Besides, the binding result with recombinant human LIFR and with human IL-6 (E. coli) was “no binding” each time.

The values above are taken from patent US20210130453A1 (AstraZeneca / MedImmune, published 2021).
